The results in this text go back to article PMC13086950 (Nature Communications, 2026).

Series [1] concerns the molecule itself. Description: SEC-MALS; fraction B1’ of GephFL, 100 μL at 1.2 mg/mL, Superose 6 Increase 10/300 GL, 20 mM HEPES pH 8.0, 150 mM NaCl, 1 mM EDTA, 5 mM β-mercaptoethanol.
Series [2] concerns the molecule itself. Briefly: SEC-MALS; fraction A2’ of GephFL, 100 μL at 1.3 mg/mL, Superose 6 Increase 10/300 GL, 20 mM HEPES pH 8.0, 150 mM NaCl, 1 mM EDTA, 5 mM β-mercaptoethanol.
Series [3] deals with the molecule itself. Briefly: SEC-MALS; fraction A1 of GephFL, 100 μL at 1.3 mg/mL, Superose 6 Increase 10/300 GL, 20 mM HEPES pH 8.0, 150 mM NaCl, 1 mM EDTA, 5 mM β-mercaptoethanol.

B1: Full-length gephyrin, splice variant P1 (natural protein)
chain: MAHHHHHHGGSSGGSSEFMATEGMILTNHDHQIRVGVLTVSDSCFRNLAEDRSGINLKDLVQDPSLLGGTISAYKIVPDEIEEIKETLIDWCDEKELNLILTTGGTGFAPRDVTPEATKEVIEREAPGMALAMLMGSLNVTPLGMLSRPVCGIRGKTLIINLPGSKKGSQECFQFILPALPHAIDLLRDAIVKVKEVHDELEDLPSPPPPLSPPPTTSPHKQTEDKGVQCEEEEEEKKDSGVASTEDSSSSHITAAALAAKIPDSIISRGVQVLPRDTASLSTTPSESPRAQATSRLSTASCPTPKVQSRCSSKENILRASHSAVDITKVARRHRMSPFPLTSMDKAFITVLEMTPVLGTEIINYRDGMGRVLAQDVYAKDNLPPFPASVKDGYAVRAADGPGDRFIIGESQAGEQPTQTVMPGQVMRVTTGAPIPCGADAVVQVEDTELIRESDDGTEELEVRILVQARPGQDIRPIGHDIKRGECVLAKGTHMGPSEIGLLATVGVTEVEVNKFPVVAVMSTGNELLNPEDDLLPGKIRDSNRSTLLATIQEHGYPTINLGIVGDNPDDLLNALNEGISRADVIITSGGVSMGEKDYLKQVLDIDLHAQIHFGRVFMKPGLPTTFATLDIDGVRKIIFALPGNPVSAVVTCNLFVVPALRKMQGILDPRPTIIKARLSCDVKLDPRPEYHRCILTWHHQEPLPWAQSTGNQMSSRLMSMRSANGLLMLPPKTEQYVELHKGEVVDVMVIGRL
B1: the figures for the “stoichiometry N” value in series [1], in series [2] and in series [3] were 2, about 4 and about 6, respectively.
